The source of these data is article doi:10.1101/2021.03.09.434581.

Experiment [1] concerns the target Vibrio cholerae ParD2 antitoxin, full length (Vibrio cholerae). The experiment is described as follows: SEC-MALS.
Experiment [2] has the same target. The experiment is described as follows: SEC-SAXS. For orientation: In gel filtration, larger molecules generally elute earlier.
Experiment [3] has as its target Vibrio cholerae ParD2 N-terminal domain as found in the crystal (Vibrio cholerae). The experiment is described as follows: crystal structure.

In general, stoichiometry N refers to the number of molecules, sites or subunits per partner or assembly.

Several values for one entry are separate records, joined by “and”; a condition that tells them apart may be missing. Equal entries are not always repeated.

As for “Vibrio cholerae ParD2 antitoxin, full length (natural protein)”, the stoichiometry N was 10 and 12 and 8 in experiment [1]; 12 in experiment [2].

As to “Vibrio cholerae ParD2 N-terminal domain as found in the crystal (domain or fragment)”, the stoichiometry N in experiment [3] is 16.
